From EP0556111A1

Legend:
[1] = biological target: hybrid F(ab)₂-PhoA (complex hybrid protein alkaline phosphatase/F(ab)₂ of antibody Mα2-3) (E. coli) [phosphatase: P00634]
[2] = biological target: reagent Mα2-3/peroxidase, obtained by classical chemical coupling

toxin alpha (from UniProt P01426)
IC50 [1]: 20 nM
IC50 [2]: 9 nM
